Biological target: the molecule itself

B1: wild-type α-hemolysin (WT-HL) (natural protein)
chain: ADSDINIKTGTTDIGSNTTVKTGDLVTYDKENGMHKKVFYSFIDDKNHNKKLLVIRTKGTIAGQYRVYSEEGANKSGLAWPSAFKVQLQLPDNEVAQISDYYPRNSIDTKEYMSTLTYGFNGNVTGDDTGKIGGLIGANVSIGHTLKYVQPDFKTILESPTDKKVGWKVIFNNMVNQNWGPYDRDSWNPVYGNQLFMKTRNGSMKAADNFLDPNKASSLLSSGFSPDFATVITMDRKASKQQTNIDVIYERVRDDYQLHWTSTNWKGTNTKDKWIDRSSERYKIDWEKEEMTN
**Q.** Which “stoichiometry N” value does the source give for B1 here?
**A.** The value was 7.

From publication PMC3547825 (PLoS Computational Biology, 2013)
